The target in this test is Recombinant 6×His-tagged CrMCA-II (Chlamydomonas reinhardtii). As to the kind of experiment: SEC; purified rCrMCA-II in buffer without DTT and Ca2+; with 1 mM DTT in the SEC buffer the dimer-to-monomer ratio decreased. Background: SEC sorts molecules by how far they enter the pores of the column.

1 substance from article PMC10896300 can be followed below.

Broadly, the stoichiometry N is a count of units in the complex or per binding partner.

Regarding “Recombinant 6×His-tagged CrMCA-II (enzyme)”, the stoichiometry N is 2.
